# In patent publication US20240150460A1 (SHENGHE CHINA BIOPHARMACEUTICAL, published 2024):
# Residue numbers refer to the chain shown, from its start.
# B1: antibody 23 (antibody, V domains shown)
# VH: EVQLVESGGGLVQPGGSLRLSCAASGSIFSPNGIGWYRQAPGKLRELVAGITGNGLTDYADSVKGRFTISRDSAKNTVYLQMNSLKTEDTAVYYCNLLLNHAEWGQGTQVTVSS
# notes: expressed in CHO cells; also called chimeric antibody 23
# B2: antibody 23-p (antibody, V domains shown)
# VH: B1 VH with D61E
# B3: antibody 23-hu49 (antibody, V domains shown)
# VH: B1 VH with G33A, D61E, S73N, A74S, K86R, T87A, Q109L
# B4: antibody 23-hu52 (antibody, V domains shown)
# VH: B1 VH with N32Q, L44G, A49S, D61E, S73N, A74S, K86R, T87A, N96A, Q109L
# B5: antibody 23-hu44 (antibody, V domains shown)
# VH: B1 VH with L44G, A49S, D61E, S73N, A74S, K86R, T87A, N96A, Q109L
# B6: antibody 23-hu45 (antibody, V domains shown)
# VH: B1 VH with D61E, S73N, A74S, K86R, T87A, Q109L
# B7: antibody 23-hu48 (antibody, V domains shown)
# VH: B1 VH with G33A, L44G, A49S, D61E, S73N, A74S, K86R, T87A, N96A, Q109L
# B8: antibody 18-hu3 (antibody, V domains shown)
# VH: EVQLVESGGGLVQPGGSLRLSCAASGIRFSIANMGWYRQAPGKLHEMVAGITSDGFTNYADSVKGRFTISRDNSKNTLYLQMNSLRAEDTAVYYCASFPTRHYWGQGTLVTVSS
# notes: also called humanized antibody 18-hu3
# B9: antibody 18-hu4 (antibody, V domains shown)
# VH: B8 VH with A96D
# B10: antibody 18 (antibody, V domains shown)
# VH: B8 VH with S25A, S74A, L78V, S84N, R86K, A87P, A96D, L109Q
# notes: expressed in CHO cells; also called chimeric antibody 18
# B11: antibody 10 (antibody, V domains shown)
# VH: QVQLVESGGGLVQPGGSLTLSCAVSGITFSRSVMGWFRQAPGKLRELVAGITSDDNTDYADSVKGRFTISRDNAKNTVYLQMNSLKPEDTAVYYCNILPDSRLGWGQGTQVTVSS
# notes: expressed in CHO cells; also called chimeric antibody 10
# B12: antibody 10-hu5 (antibody, V domains shown)
# VH: B11 VH with Q1E, T19R, A74S, V78L, K86R, P87A, Q110L
# B13: antibody 10-hu3 (antibody, V domains shown)
# VH: B11 VH with Q1E, T19R, V24A, A74S, V78L, K86R, P87A, N96A, Q110L
# Experiments:
# NKp30 on NK cells [1] = molecular target: T1, NKp30 on NK cells (UniProt O14931 19-201, limits assumed); assay: flow cytometry (y axis MFI, x axis in nM); the legend of FIGS. 3a-3h names a stable expression cell line; fit value of a flat curve, far outside the range tested
# T1 sequence (looked up): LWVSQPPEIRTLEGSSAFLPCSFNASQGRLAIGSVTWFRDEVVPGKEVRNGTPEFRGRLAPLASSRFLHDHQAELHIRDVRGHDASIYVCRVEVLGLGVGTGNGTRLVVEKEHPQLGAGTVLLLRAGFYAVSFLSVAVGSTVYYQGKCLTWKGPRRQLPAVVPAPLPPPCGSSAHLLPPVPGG
# [2] = molecular target: T2, human NKp30-his protein (KACTUS; Cat: NKP-HM430) (human, UniProt O14931 19-135, limits assumed); assay: ELISA, Human-NKp30-His coated at 0.2 µg/mL, antibody from 10 µg/mL in 3-fold steps, goat anti-human Fc, OD450 (Example 11)
# T2 construct: Bought protein (KACTUS NKP-HM430); not shown: His tag
# T2 sequence (looked up): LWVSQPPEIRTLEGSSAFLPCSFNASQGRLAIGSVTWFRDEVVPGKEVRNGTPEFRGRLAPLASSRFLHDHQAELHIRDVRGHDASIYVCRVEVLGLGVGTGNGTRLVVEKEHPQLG
# Experimental: (§1) Human-NKp30-His (purchased from KACTUS, item No. NKP-HM430) was diluted to 0.2 μg/mL with the coating solution (1×PBS, pH 7.4), and was coated into 96-well enzyme-labelled plates at 100 μL/well and allowed to stand overnight at 4° C. The coating solution was poured off, the plate was washed with 1×PBST at 300 μL/well, washed with a plate washer for 4 times, and patted dry on a plate paper. The plate was blocked with 3% skimmed milk powder at 300 μL/well, and incubated at 37° C. for 1 h. The blocking solution was poured off, washed with a plate washer for 4 times, and patted dry on a plate paper. The reference product and the test product were diluted with 3% skimmed milk powder to 10 μg/mL, and the initial concentration was diluted by 3 times. A total of 11 gradients were diluted, and another blank well was set, and only diluent was added. It was incubated at 37° C. and 100 μL/well for 1 h. Liquid in the wells was discarded, and washed with a plate washer for 4 times, and patted dry on a plate paper. The goat anti-human Fc was diluted with 3% skimmed milk powder at 1: 20,000 and 100 μL/well, and incubated at 37° C. for 1 h. The plate was washed with a plate washer for 6 times, and patted dry on a plate paper. TMB color developing solution was added at 100 μL/well, and wrapped with an aluminum foil, and the color was developed at 37° C. for 8 minutes, protected from light. The termination solution 1 M HCl was added at 100 μL/well to terminate the color development reaction. It was read at 450 nm on an enzyme-labeled instrument.
# [3] = molecular target: T2, human NKp30-his protein (KACTUS; Cat: …); assay: BLI (Octet Red96e), method of Example 6: antibody on AHC sensor, human NKp30-his in solution; second run, Table 4 (Example 12 series with the CDR-modified and humanized variants)
# Experimental: (§2) After equilibration of the AHC sensor with 0.02% PBST (0.02% Tween 20, pH 7.4, 1*PBS) as buffer for 60 s, the NKp30 antibody in the sample plate was immobilized for 300 s and second equilibration was performed for 180 s. […] human NKp30-his protein (KACTUS; Cat: NKP-HM430) was bound with NKp30 antibody for 300 s and then dissociated for 600 s. After dissociation, 10 mM glycine (pH 2.0) was used as regeneration buffer to regenerate for 30 s.
# (§3) The affinity of the CDR-modified and humanized antibodies was tested according to the method of Example 6, and the results are shown in Table 4.
# NKp30 on NK cells [4] = molecular target: T1, NKp30 on NK cells; assay: flow cytometry (y axis MFI, x axis in nM); the legend of FIGS. 3a-3h names a stable expression cell line; Example 11 describes no cell assay
# [5] = molecular target: T2, human NKp30-his protein (KACTUS; Cat: …); assay: BLI (Octet Red96e), antibody captured on AHC sensor, 100 nM human NKp30-his in solution, 1:1 fit
# Experimental: as §2
# Subtract the result plot for reference channel H1 from the test result plot. The experimental data fit the 1:1 binding model. The molecular weight of 35 kDa was used to calculate the molar concentration of human NKp30 protein.
# [6] = molecular target: T2, human NKp30-his protein (KACTUS; Cat: …); assay: ELISA, Human-NKp30-His coated at 0.2 µg/mL, antibody from 10 µg/mL in 3-fold steps, goat anti-human Fc, OD450 (Example 11); remark: listed apart in the source
# Experimental: as §1
# [7] = molecular target: T2, human NKp30-his protein (KACTUS; Cat: …); assay: BLI (Octet Red96e), method of Example 6: antibody on AHC sensor, human NKp30-his in solution
# Experimental: as §2, §3
# [8] = molecular target: T2, human NKp30-his protein (KACTUS; Cat: …); assay: ELISA, Human-NKp30-His coated at 0.2 µg/mL, antibody from 10 µg/mL in 3-fold steps, goat anti-human Fc, OD450 (Example 11); the curve stays low: fitted plateau about OD450 0.25, highest point about 0.4 at 3.3 µg/mL, about 0.2 at 10 µg/mL
# Experimental: as §1, with “TMB color developing solution was added at 100 μL/well, and wrapped with an aluminum foil, and the color was developed at 37° C. for 8 minutes, protected from light. The termination solution 1 M HCl was added at 100 μL/well to terminate the color development reaction.” left out
# [9] = molecular target: T2, human NKp30-his protein (KACTUS; Cat: …); assay: ELISA, Human-NKp30-His coated at 0.2 µg/mL, antibody from 10 µg/mL in 3-fold steps, goat anti-human Fc, OD450 (Example 11); the fit value lies above the highest concentration tested
# Experimental: as §1, with “TMB color developing solution was added at 100 μL/well, and wrapped with an aluminum foil, and the color was developed at 37° C. for 8 minutes, protected from light. The termination solution 1 M HCl was added at 100 μL/well to terminate the color development reaction.” left out
# NKp30 on NK cells [10] = molecular target: T1, NKp30 on NK cells; assay: cell-based or functional assay
# [11] = molecular target: T2, human NKp30-his protein (KACTUS; Cat: …); assay: ELISA, Human-NKp30-His coated at 0.2 µg/mL, antibody from 10 µg/mL in 3-fold steps, goat anti-human Fc, OD450 (Example 11); remark: listed apart in the source
# Experimental: as §1, with “TMB color developing solution was added at 100 μL/well, and wrapped with an aluminum foil, and the color was developed at 37° C. for 8 minutes, protected from light. The termination solution 1 M HCl was added at 100 μL/well to terminate the color development reaction.” left out
molecule,measurement,setting,value
isotype control antibody,EC50,NKp30 on NK cells [1],241000 nM
B1,EC50,[2],7.46 ng/mL
same,EC50 (read off the curve),[2],~7 ng/mL
same,Kd,[3],0.844 nM
same,EC50,NKp30 on NK cells [4],0.658 nM
same,Kd,[5],2.34 nM
same,EC50,[6],2.38 ng/mL
B2,Kd,[7],1.27 nM
same,EC50,NKp30 on NK cells [4],0.493 nM
B3,EC50,[6],2.27 ng/mL
B4,EC50,[8],230 ng/mL
same,Kd,[7],5.93 nM
B5,Kd,[7],1.3 nM
B6,EC50 (read off the curve),[2],~3 ng/mL
same,Kd,[7],0.991 nM
same,EC50,[6],2.83 ng/mL
B7,Kd,[7],5.1 nM
same,EC50,[9],76200 ng/mL
B8,EC50,[2],8.48 ng/mL
same,"IFN-γ secretion by NK cells stimulated with plate-coated antibody, EC50",NKp30 on NK cells [10],8.83 nM
B9,EC50,[11],17 ng/mL
B10,EC50,[2],2.51 ng/mL
same,Kd,[5],0.302 nM
same,EC50,[11],3.62 ng/mL
B11,EC50,[2],5.22 ng/mL
same,Kd,[5],0.201 nM
B12,EC50,[2],10.4 ng/mL
B13,EC50,[2],11.8 ng/mL
